Molecular target: Fas on Jurkat cells (cell line from human T cell) (human) (UniProt P25445)
Test: cell-based or functional assay

UniProt P25445, sequence (P25445 26-335): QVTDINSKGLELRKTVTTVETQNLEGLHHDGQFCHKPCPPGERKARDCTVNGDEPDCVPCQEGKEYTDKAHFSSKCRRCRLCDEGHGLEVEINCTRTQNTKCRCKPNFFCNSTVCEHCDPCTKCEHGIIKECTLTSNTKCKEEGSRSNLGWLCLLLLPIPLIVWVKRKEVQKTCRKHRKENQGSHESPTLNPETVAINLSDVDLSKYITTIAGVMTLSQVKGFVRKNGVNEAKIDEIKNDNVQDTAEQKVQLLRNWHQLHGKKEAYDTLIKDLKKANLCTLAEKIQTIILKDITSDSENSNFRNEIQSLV

**Q.** “FLAG-IleZip-shFasL (pM1815), fusion protein of FLAG peptide, leucine zipper and the extracellular domain of human Fas ligand” was tested. Which apoptosis-inducing activity relative to IleZip-shFasL (WST-1 assay, Jurkat cells) did it give?
**A.** The apoptosis-inducing activity relative to IleZip-shFasL (WST-1 assay, Jurkat cells) was 10 times.

**Q.** What about the apoptosis-inducing activity relative to shFasL (WST-1 assay, Jurkat cells) of the same substance?
**A.** Its apoptosis-inducing activity relative to shFasL (WST-1 assay, Jurkat cells) is 100 times.

Source: patent US20040053249A1
